The results in this text go back to publication PMC3678299 (FEBS Open Bio, 2013).

This data set concerns the molecule itself. In words: cross-linking; chemical cross-linking in TrkA-transfected PC12 cells, with or without LPC; data not shown.

B1: tropomyosin-related kinase A (TrkA) (receptor)
chain: not shown
In the case of B1, the stoichiometry N (as a rule, the number of molecules, sites or subunits per partner or assembly) worked out at 2.
